From PMC7794846
Blank lines part the entries; values can stand above or below the substance they belong to.

Tests used:
[1] = biological target: LHCGR K225S + T226I mutant (human) (UniProt P22888)
[2] = biological target: LHCGR A57T mutant (human) (UniProt P22888)
[3] = biological target: human luteinizing hormone (LH)/chorionic gonadotropin (hCG) receptor (LHCGR), wild type (human) (UniProt P22888)
[4] = biological target: LHCGR S149F mutant (human) (UniProt P22888)
[5] = biological target: LHCGR I83S mutant (human) (UniProt P22888)
[6] = biological target: LHCGR R247T mutant (human) (UniProt P22888)
[7] = biological target: LHCGR T48R mutant (human) (UniProt P22888)
[8] = biological target: LHCGR N35D + V37A mutant (human) (UniProt P22888)
[9] = biological target: LHCGR E270V mutant (human) (UniProt P22888)
[10] = biological target: LHCGR K225S + T226I mutant (human) (UniProt P22888); remark: listed apart in the source
[11] = biological target: LHCGR A57T mutant (human) (UniProt P22888); remark: listed apart in the source
[12] = biological target: human luteinizing hormone (LH)/chorionic gonadotropin (hCG) receptor (LHCGR), wild type (human) (UniProt P22888); remark: listed apart in the source
[13] = biological target: LHCGR S149F mutant (human) (UniProt P22888); remark: listed apart in the source
[14] = biological target: LHCGR I83S mutant (human) (UniProt P22888); remark: listed apart in the source
[15] = biological target: LHCGR R247T mutant (human) (UniProt P22888); remark: listed apart in the source
[16] = biological target: LHCGR T48R mutant (human) (UniProt P22888); remark: listed apart in the source
[17] = biological target: LHCGR N35D + V37A mutant (human) (UniProt P22888); remark: listed apart in the source
[18] = biological target: LHCGR E270V mutant (human) (UniProt P22888); remark: listed apart in the source

hCG EC50 (pM) of cAMP increase, BRET (CAMYEL biosensor) in transfected HEK293 cells, 1 pM–100 nM hCG, 30 min [1]: 194 pM | hCG EC50 (pM) of cAMP increase, BRET (CAMYEL biosensor) in transfected HEK293 cells, 1 pM–100 nM hCG, 30 min [2]: 153 pM | hCG EC50 (pM) of cAMP increase, BRET (CAMYEL biosensor) in transfected HEK293 cells, 1 pM–100 nM hCG, 30 min [3]: 143 pM | hCG EC50 (pM) of cAMP increase, BRET (CAMYEL biosensor) in transfected HEK293 cells, 1 pM–100 nM hCG, 30 min [4]: 111 pM | hCG EC50 (pM) of cAMP increase, BRET (CAMYEL biosensor) in transfected HEK293 cells, 1 pM–100 nM hCG, 30 min [5]: 127 pM | hCG EC50 (pM) of cAMP increase, BRET (CAMYEL biosensor) in transfected HEK293 cells, 1 pM–100 nM hCG, 30 min [6]: 386 pM | hCG EC50 (pM) of cAMP increase, BRET (CAMYEL biosensor) in transfected HEK293 cells, 1 pM–100 nM hCG, 30 min [7]: 130 pM | hCG EC50 (pM) of cAMP increase, BRET (CAMYEL biosensor) in transfected HEK293 cells, 1 pM–100 nM hCG, 30 min [8]: 94.5 pM | hCG EC50 (pM) of cAMP increase, BRET (CAMYEL biosensor) in transfected HEK293 cells, 1 pM–100 nM hCG, 30 min [9]: 248 pM | hCG AUC of the pERK1/2 activation kinetics, BRET (REV biosensor) in transfected HEK293 cells, 100 pM hCG (relative units) [10]: 9.47 | hCG AUC of the pERK1/2 activation kinetics, BRET (REV biosensor) in transfected HEK293 cells, 100 pM hCG (relative units) [11]: 20.5 | hCG AUC of the pERK1/2 activation kinetics, BRET (REV biosensor) in transfected HEK293 cells, 100 pM hCG (relative units) [12]: 7.98 | hCG AUC of the pERK1/2 activation kinetics, BRET (REV biosensor) in transfected HEK293 cells, 100 pM hCG (relative units) [13]: 13.9 | hCG AUC of the pERK1/2 activation kinetics, BRET (REV biosensor) in transfected HEK293 cells, 100 pM hCG (relative units) [14]: 6.65 | hCG AUC of the pERK1/2 activation kinetics, BRET (REV biosensor) in transfected HEK293 cells, 100 pM hCG (relative units) [15]: 15.4 | hCG AUC of the pERK1/2 activation kinetics, BRET (REV biosensor) in transfected HEK293 cells, 100 pM hCG (relative units) [16]: 13.4 | hCG AUC of the pERK1/2 activation kinetics, BRET (REV biosensor) in transfected HEK293 cells, 100 pM hCG (relative units) [17]: 8.19 | hCG AUC of the pERK1/2 activation kinetics, BRET (REV biosensor) in transfected HEK293 cells, 100 pM hCG (relative units) [18]: 7.18
Substance: recombinant human chorionic gonadotropin (hCG) (from UniProt P01215 25-116; P0DN86 21-165) (ligand)

LH EC50 (pM) of cAMP increase, BRET (CAMYEL biosensor) in transfected HEK293 cells, 1 pM–100 nM LH, 30 min [1]: 698 pM | LH EC50 (pM) of cAMP increase, BRET (CAMYEL biosensor) in transfected HEK293 cells, 1 pM–100 nM LH, 30 min [2]: 703 pM | LH EC50 (pM) of cAMP increase, BRET (CAMYEL biosensor) in transfected HEK293 cells, 1 pM–100 nM LH, 30 min [3]: 1110 pM | LH EC50 (pM) of cAMP increase, BRET (CAMYEL biosensor) in transfected HEK293 cells, 1 pM–100 nM LH, 30 min [4]: 756 pM | LH EC50 (pM) of cAMP increase, BRET (CAMYEL biosensor) in transfected HEK293 cells, 1 pM–100 nM LH, 30 min [5]: 712 pM | LH EC50 (pM) of cAMP increase, BRET (CAMYEL biosensor) in transfected HEK293 cells, 1 pM–100 nM LH, 30 min [6]: 556 pM | LH EC50 (pM) of cAMP increase, BRET (CAMYEL biosensor) in transfected HEK293 cells, 1 pM–100 nM LH, 30 min [7]: 1210 pM | LH EC50 (pM) of cAMP increase, BRET (CAMYEL biosensor) in transfected HEK293 cells, 1 pM–100 nM LH, 30 min [8]: 595 pM | LH EC50 (pM) of cAMP increase, BRET (CAMYEL biosensor) in transfected HEK293 cells, 1 pM–100 nM LH, 30 min [9]: 2810 pM | LH AUC of the pERK1/2 activation kinetics, BRET (REV biosensor) in transfected HEK293 cells, 100 pM LH (relative units) [10]: 11.4 | LH AUC of the pERK1/2 activation kinetics, BRET (REV biosensor) in transfected HEK293 cells, 100 pM LH (relative units) [11]: 10.9 | LH AUC of the pERK1/2 activation kinetics, BRET (REV biosensor) in transfected HEK293 cells, 100 pM LH (relative units) [12]: 13.9 | LH AUC of the pERK1/2 activation kinetics, BRET (REV biosensor) in transfected HEK293 cells, 100 pM LH (relative units) [13]: 10.4 | LH AUC of the pERK1/2 activation kinetics, BRET (REV biosensor) in transfected HEK293 cells, 100 pM LH (relative units) [14]: 8.03 | LH AUC of the pERK1/2 activation kinetics, BRET (REV biosensor) in transfected HEK293 cells, 100 pM LH (relative units) [15]: 10.5 | LH AUC of the pERK1/2 activation kinetics, BRET (REV biosensor) in transfected HEK293 cells, 100 pM LH (relative units) [16]: 12.3 | LH AUC of the pERK1/2 activation kinetics, BRET (REV biosensor) in transfected HEK293 cells, 100 pM LH (relative units) [17]: 5.48 | LH AUC of the pERK1/2 activation kinetics, BRET (REV biosensor) in transfected HEK293 cells, 100 pM LH (relative units) [18]: 10.9
Substance: recombinant human luteinizing hormone (LH) (from UniProt P01215 25-116; P01229 21-141) (ligand)
